For the assay, the target named is Type 2 (MM2) sCJD proteinase K-resistant PrP^Sc aggregates (human). The assay is described as follows: sedimentation velocity in sucrose gradient (ultracentrifugation).

A word on the stoichiometry N: it is a count of units in the complex or per binding partner. For “Type 2 (MM2) sCJD proteinase K-resistant PrP^Sc aggregates (complex)”, the stoichiometry N is > 600 monomers.

The record behind these values is publication PMC4397081.
